From paper PMC9283966 come the findings set out here.

What all share (settings): glycan lost
Series [1] in a line: Western blot of conditioned medium. In general terms: A western blot detects proteins with antibodies after separation by electrophoresis.
The nature of series [2]: chromogenic anti-FXa assay, recombinant protein.
Series [3] in a line: Western blot of thrombin-antithrombin complexes.
Where [4] appears, read: control: β antithrombin (Ala169).
The mark [5] stands for this setting: control: wild type (Ser169 background).

As for antithrombin: His224 in β background, the expression_or_secretion result in series [1] (setting [4]) is “decreases”. Also, the “other: protease inhibitory activity, other: anti-FXa activity” value in series [2] (setting [4]) is reported as “abolishes”. The “other: protease inhibitory activity” value in series [3] (setting [4]) was “abolishes”.
For the substance antithrombin: p.Asn224His, in series [1] (setting [5]), the expression_or_secretion entry is “decreases”. Also, the “other: protease inhibitory activity, other: anti-FXa activity” value in series [2] (setting [5]) is on record as “no change, 1.38 vs 1.39”. Further, the “other: protease inhibitory activity” value in series [3] (setting [5]) is listed as “no change”.
